Substrate in data set [1]: Nc1ncnc2c1ncn2[C@@H]1O[C@H](COP(=O)(O)OP(=O)(O)OP(=O)(O)O)[C@@H](O)[C@H]1O
In words: Effect of substrate concentration on velocity (Lineweaver-Burke, Km). As to conditions: other: 5 mM Mg++ and 100 μM L-fucose; pH 8.0; 37.0 °C. The data set is classed as biochemical, pig. On the procedure:
(§1) Fucokinase activity was assayed by measuring the production of L-fucose-1-Pfrom [^3 H]L-fucose and ATP. The incubation mixtures contained the following components (final concentrations) in a total volume of 150 μl: L-fucose, 0.1 mM; ATP, 5 mM; MgSO4, 5 mM; Tris-HCl buffer, pH 8.0, 65 mM; and various amounts of enzyme at the different stages of purification. Incubations were at 37° C. for 10 minutes, and reactions were terminated by heating the reaction mixtures in a boiling water bath for 1 minute. The incubation mixtures were then applied to a column of DE-52 contained in a Pasteur pipette, and the column was washed with at least 5 column volumes of 10 mM (NH4)HCO3 to remove the unbound material. The [^3 H]fucose-1-P was then eluted with 500 mM (NH4)HCO3. Aliquots of the eluates were assayed for their radioactive content by subjecting a portion to scintillation counting.
(§2) The effect of concentration of the substrates, L-fucose and ATP, on the velocity of the reaction was determined. The Km for L-fucose was determined at saturating concentrations of the other substrates, i.e., 5 mM ATP and 5 mM Mg^++. […] A similar experiment was performed with ATP. In this case, the reactions were done in the presence of 5 mM Mg^++ and 100 μM L-fucose. The Km for ATP was estimated to be 600 μM (data not shown).

Substrate in data set [2]: C[C@H](O)[C@@H](O)[C@@H](O)[C@H](O)C=O
Described as above. The format is biochemical, pig. The note with it: other: 5 mM ATP and 5 mM Mg++; pH 8.0; 37.0 °C. On the procedure: as §1, §2

B1: pig kidney fucokinase (Sus scrofa) (protein)
chain: MEQPKGVDWTVIILTCQYKDSVEVFQKELEIRQKREQIPASTLLLAVEDPEVHVGSGGATLNALLVAAEHLSARAGFTVVTSDVLHSAWILILHMGRDFPFDDCGRAFTCLPVENPQAPVEAVVCNLDCLLDIMSHRLGPGSPPGVWVCSTDMLLSVPPNPGINWDGFRGARVIALPGSTAYARNHGVYLTDSQGFVLDIYYQGTEAEIQRCARPDGQVPLVSGIVFFSVETAEHLLATHVSPPLDACTYMGLDSGAQPVQLSLFFDILLCMARNVRREDFLVGRPPEMGRGDMETEGYLRGARAELWRELRDQPLTLAYVPDGSYNYMTNSASEFLHSLTFPGASGAQVVHSQVEEQQLLGAGSSVVSCLLEGPVQLGPGSVLQHCHLRGPIHIGTGCFVSGLDAAQSEALHSLELHDLVLQGHHLQLHGAPSRAFTLVGRLDSWERQGAGTYLNMSWSKFFQKTGIRDWDLWDPDTPPTERCLLSARLFPVLHPLRALGPQDMLWMLDPQEDGGKALRAWRDSWRLSWEQLQPCLDRAATLASRRDLFFRQALHKARHVLEARQDLSLRPLIRAAVREGCPGPLMATLDQVAAGAGDPGVAARALACVADILGCMAEGRGGLRSGPAANPEWVRPFSYLECGDLAGGVEALAQEREKWLSRPALLVRAARHYEGAGQILIRQAVMSAQHFVSTEPVELPAPGQWVVAECPARVDFSGGWSDTPPLAYEHGGAVLGLAVRVDGRRPIGARARRIPEPELWLAVGPQHDKMAMKIVCRSLDDLQDYCQPHAPGALLKAAFICAGILSVHSELSLSEQLLCTFGGGFELQTWSELPHGSGLGTSSILAGAALAALQRVAGRAVGTEALIHAVLHLEQVLTTGGGWQDQVGGLMPGIKVGRSRAQLPLKVEVEEITVPAGFVQKLNDHLLLVYTGKTRLARNLLQDVLRSWYARLPPVVQNAHNLVQQTEECAEAFRQGSLPRLGQCLTSYWEQKKLMAPGCEPLAVRHMMDALAPHVHGQSLAGAGGGGFLYLLTKEPRQKEALEAVLAKTEGLGNYSVHLVEVDTQGLSLQLLGTETSTGCSF
notes: L-Fucokinase was purified to apparent homogeneity from the cytosolic fraction of pig kidney; from tissue; host or cells: pig kidney, cytosolic fraction
For B1, the values for the Km in data set [1] and in data set [2] were 600 µM and 27 µM, respectively.

The values are drawn from patent US6090605A, “Purified porcine kidney L-fucose kinase” (The Board of Trustees of the University of Arkansas, priority 1998, dated 2000).
